Experimental data from article PMC7198388, “Radiohybrid Ligands: A Novel Tracer Concept Exemplified by ^18F- or ^68Ga-Labeled rhPSMA Inhibitors” (Journal of Nuclear Medicine, 2020).
Like-named read-outs stand apart in the source and are kept apart here.

Assays:
LNCaP cells [1] = details: 1 h, 37°C, % of (125I-I-BA)KuE, 18F reference ligands, mean ± SD, n = 3; cited from earlier work
From the text: page 20: 8. Supplemental Data 1 Supplemental Table 1.

[2] = tested on: LNCaP tumor-bearing male CB-17 SCID mice; details: 1 h p.i., mean ± SD, n = 4, cited from earlier work
Method: page 21: 9. Supplemental Data 2 Supplemental Table 2. Biodistribution of 68Ga-19F-rhPSMA-7 to 10, 18F-rhPSMA-7 and the reference ligands 18F-DCFPyL and 18F-PSMA-1007 at 1 h p.i. in LNCaP tumor-bearing SCID mice (n=3 for 68Ga-19F-rhPSMA-7 to 9, n=3 for 18F-rhPSMA-7, n=4 for 68Ga-19F-rhPSMA-10, 18F-DCFPyL and 18F-PSMA- 1007). Data for reference ligands were taken from a previously published study by our group (3). Values are expressed as a percentage of injected dose per gram (%ID/g), mean ± standard deviation. 18 18 68Ga-natF- 68Ga-natF- 68Ga-natF- 68Ga-natF- 18F-rhPSMA-7 Organ F-DCFPyL F-PSMA- ...

human serum albumin = biological target: T1, human serum albumin (Homo sapiens, UniProt P02768); details: affinity HPLC, Chiralpak HSA column; 19F reference ligands; cited from earlier work
T1 construct: purchased Daicel H13H-2433
T1 sequence (P02768 25-609): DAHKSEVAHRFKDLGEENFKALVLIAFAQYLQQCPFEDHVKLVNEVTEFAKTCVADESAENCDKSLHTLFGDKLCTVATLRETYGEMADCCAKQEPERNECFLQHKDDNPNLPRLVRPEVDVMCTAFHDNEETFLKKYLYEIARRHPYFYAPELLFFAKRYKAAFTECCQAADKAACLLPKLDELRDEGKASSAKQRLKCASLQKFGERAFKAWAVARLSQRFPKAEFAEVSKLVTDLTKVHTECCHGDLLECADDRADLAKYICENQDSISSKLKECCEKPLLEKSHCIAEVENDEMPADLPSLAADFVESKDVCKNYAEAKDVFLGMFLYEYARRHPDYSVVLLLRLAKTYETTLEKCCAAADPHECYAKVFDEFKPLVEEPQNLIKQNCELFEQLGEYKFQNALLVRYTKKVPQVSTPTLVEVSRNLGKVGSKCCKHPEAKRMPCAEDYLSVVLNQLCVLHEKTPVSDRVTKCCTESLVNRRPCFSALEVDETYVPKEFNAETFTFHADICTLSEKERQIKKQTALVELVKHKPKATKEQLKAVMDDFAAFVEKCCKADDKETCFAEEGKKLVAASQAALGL
Method: Binding to HSA was assessed by means of a recently described HPLC method (Fig. 3D) ([34]). […] Supplemental Data 1 Supplemental Table 1.

LNCaP cells [3] = test: Internalization into LNCaP cells, normalized to (125I-I-BA)KuE; type: cell-based, human; details: LNCaP cells 1.25 x 10^5/well, 1 h, 37°C, ligand 0.5 nM/well; % of specific internalization of (125I-I-BA)KuE; 68Ga-19F or 18F free-chelator form; mean ± SD, n = 3
Method: Internalization studies were carried out according to a previously published procedure (1). Briefly, LNCaP cells were harvested 24 ± 2 hours before the experiment and seeded in poly -L-lysine coated 24-well plates […]
After removal of the culture medium, the cells were washed once with 500 µL DMEM -F12 (5% BSA) and left to equilibrate for at least 15 min at 37 °C in 200 µL DMEM-F12 (5% BSA). Each well was treated with either 25 µL of either DMEM-F12 (5% BSA, control) or 25 µL of a 100 µM PMPA (2-(Phosphonomethyl)-pentandioic acid, Tocris Bioscience, Bristol, UK) solution in PBS, for blockade. Next, 25 µL of the radioactive-labelled PSMA inhibitor (5.0 nM in PBS) was added and the cells were incubat ed at 37 °C for 60 min. The experiment was terminated by placing the 24 -well plate on ice for 3 min and consecutive removal of the medium. Each well was carefully washed with 250 µL of ice-cold HBSS. Both fractions from the first steps, representing the amount of free radioligand, were combined. Removal of surface bound activity was accomplished by incubation of the cells with 250 µL of ice-cold PMPA (10 µM in PBS) solution for 5 min […]
and rinsed again with another 250 µL of ice-cold PBS. The internalized activity was determined by incubation of the cells in 250 µL 1 M aqueous NaOH for at least 10 min. The obtained fractions were combined with those of the subsequent wash step with 250 µL 1 M aqueous NaOH. Each experiment (control and blockade) was performed in triplicate. Free, surface bound and internalized activity was quantified in a γ-counter. All internalization studies were accompanied by external reference studies, using […]
Data were corrected for non-specific

[4] = Biodistribution in LNCaP tumor-bearing CB-17 SCID mice; details: male, mouse, in vivo, iv, 0.2 nmol, total radioactivity, Biodistribution
From the text: Mice were used for experiments when tumors had grown to a diameter of 5–10 mm (3–6 wk after inoculation).
Selected organs were removed, weighed, and measured in a γ-counter.

[5] = Lipophilicity, n-octanol/PBS partition coefficient; type: physicochemical; details: pH 7.4
Method: Approximately 1 MBq of the labeled tracer was dissolved in 1 mL of a 1:1 mixture (v/v) of PBS (pH 7.4) and n-octanol in a reaction vial (n = 6). After vigorous mixing of the suspension for 3 min at r.t., the vial was centrifuged at 15,000g for 3 min (Biofuge 15, Heraus Sepatech), and 100 μL aliquots of both layers were measured in a γ-counter.

PSMA = biological target: T2, PSMA (Homo sapiens, UniProt Q04609); test: Competitive binding (IC50) on LNCaP cells with (125I-I-BA)KuE as radioligand; details: LNCaP cells 1.5 x 10^5/well, 1 h, 4°C, (125I-I-BA)KuE 0.2 nM/well, HBSS 1% BSA; natGa-19F or 19F free-chelator form; mean ± SD, n = 3
T2 construct: PSMA-positive LNCaP cells (300265; Cell Lines Service) were cultivated; host or cells: LNCaP human prostate carcinoma cells
T2 sequence (Q04609 whole entry): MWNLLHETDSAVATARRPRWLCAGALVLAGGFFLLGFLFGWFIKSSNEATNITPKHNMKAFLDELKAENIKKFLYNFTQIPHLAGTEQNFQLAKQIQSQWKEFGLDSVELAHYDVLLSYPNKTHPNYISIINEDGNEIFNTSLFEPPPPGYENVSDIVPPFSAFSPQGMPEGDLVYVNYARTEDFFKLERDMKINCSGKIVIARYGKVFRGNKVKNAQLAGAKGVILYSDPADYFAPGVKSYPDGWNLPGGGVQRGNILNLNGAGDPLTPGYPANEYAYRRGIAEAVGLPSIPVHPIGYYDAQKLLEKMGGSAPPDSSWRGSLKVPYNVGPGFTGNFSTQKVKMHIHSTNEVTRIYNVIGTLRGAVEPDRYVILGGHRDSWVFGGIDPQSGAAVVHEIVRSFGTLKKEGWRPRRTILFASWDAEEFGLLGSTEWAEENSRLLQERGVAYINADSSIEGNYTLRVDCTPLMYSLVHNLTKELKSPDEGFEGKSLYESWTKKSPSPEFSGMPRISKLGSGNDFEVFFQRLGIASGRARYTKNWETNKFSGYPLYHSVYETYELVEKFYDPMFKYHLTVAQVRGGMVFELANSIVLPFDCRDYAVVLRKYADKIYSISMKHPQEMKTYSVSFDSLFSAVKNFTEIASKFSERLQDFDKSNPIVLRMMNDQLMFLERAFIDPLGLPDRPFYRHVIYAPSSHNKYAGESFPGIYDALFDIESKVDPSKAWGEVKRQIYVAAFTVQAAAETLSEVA
Method: Data were corrected for nonspecific binding and normalized to the specific-internalization observed for the radioiodinated reference compound (n = 3). […]
with water (10 mL). The purified product was eluted with 50% aqueous ethanol (2 mL), phosphate buffered saline (PBS, 1 mL) and again water (1 mL). After removing ethanol in vacuo, purity of the radiolabelled compounds was determined by radio-HPLC and radio-TLC (ITLC-SG chromatography paper, mobile phase: 0.1 M trisodium citrate and Silica gel 60 RP-18 F254s, mobile phase: 3:2 mixture (v/v) of MeCN in H2O supplemented with 10% of 2 M NaOAc solution and 1% of TFA).
6. Human Serum Albumin (HSA) Binding
HSA binding of the PSMA-addressing ligands was determined according to a previously published procedure via HPLC (7). A Chiralpak HSA column (50 x 3 mm, 5 μm, H13H-2433, Daicel, Tokyo, Japan) […]
literature, in the range of 13 to 99% (7,8). All substances, including the examined PSMA ligands, were […]
final concentration of 0.5 mg/mL.
(Northampton, United States).
Affinity determinations (IC50)
The PSMA affinity (IC50) determinations and synthesis of the radioiodinated reference ligand (((S)-1- […]
described previously (1). Briefly, the respective ligand was diluted (serial dilution 10-4 to 10-10) in Hank’s balanced salt solution (HBSS, Biochrom). […]
(1% BSA). […] Quantification of all collected fractions was accomplished in a γ - counter. […]

Structure (SMILES)	tissue uptake at 1 h ([4]; Adrenals) [%ID/g]	tissue uptake at 1 h ([4]; Blood) [%ID/g]	tissue uptake at 1 h ([4]; Bone) [%ID/g]	tissue uptake at 1 h ([4]; Heart) [%ID/g]	tissue uptake at 1 h ([4]; Intestine) [%ID/g]	tissue uptake at 1 h ([4]; Kidneys) [%ID/g]	tissue uptake at 1 h ([4]; Liver) [%ID/g]	tissue uptake at 1 h ([4]; Lung) [%ID/g]	tissue uptake at 1 h ([4]; Muscle) [%ID/g]	tissue uptake at 1 h ([4]; Pancreas) [%ID/g]	tissue uptake at 1 h ([4]; Spleen) [%ID/g]	tissue uptake at 1 h ([4]; Stomach) [%ID/g]	tissue uptake at 1 h ([4]; Tumor) [%ID/g]	further results
O=C(O)CCC(NC(=O)NC(CCCCNC(=O)c1ccc([18F])nc1)C(=O)O)C(=O)O (centres unmarked) [19/18F-DCFPyL, 2-(3-{1-Carboxy-5-[(6-[^18F]fluoro-pyridine-3-carbonyl)-amino]-pentyl}-ureido)-pen tanedioic acid]														Internalization (LNCaP cells [1]): 118 ± 4 % of reference; Biodistribution, Adrenals [2]: 5.0 ± 4.0 %ID/g; Biodistribution, Blood [2]: 0.34 ± 0.30 %ID/g; Biodistribution, Bone [2]: 0.12 ± 0.02 %ID/g; Biodistribution, Heart [2]: 0.25 ± 0.09 %ID/g; Biodistribution, Intestine [2]: 0.14 ± 0.02 %ID/g; Biodistribution, Kidneys [2]: 152.4 ± 15.3 %ID/g; Biodistribution, Liver [2]: 1.7 ± 0.2 %ID/g; Biodistribution, Lung [2]: 0.46 ± 0.05 %ID/g; Biodistribution, Muscle [2]: 0.11 ± 0.02 %ID/g; Biodistribution, Pancreas [2]: 0.20 ± 0.10 %ID/g; Biodistribution, Spleen [2]: 9.6 ± 4.4 %ID/g; Biodistribution, Stomach [2]: 0.20 ± 0.03 %ID/g; Biodistribution, Tumor ([2]; LNCaP tumor): 7.3 ± 1.5 %ID/g; HSA-binding (human serum albumin): 14%
CC(C)(C)[Si](F)(c1ccc(C(=O)NC[C@@H](NC(=O)CCC(C(=O)O)N2CCN(CC(=O)O)CCN(CC(=O)O)CCN(CC(=O)O)CC2)C(=O)N[C@H](CCCCNC(=O)CCC(=O)NCCC[C@@H](NC(=O)CC[C@H](NC(=O)N[C@@H](CCC(=O)O)C(=O)O)C(=O)O)C(=O)O)C(=O)O)cc1)C(C)(C)C (some centres unmarked) [68/natGa-19/18F-rhPSMA-7, metal not drawn]	6.7 ± 2.2	1.9 ± 0.1	0.52 ± 0.11	1.2 ± 0.3	0.43 ± 0.07	34.1 ± 6.6	0.77 ± 0.1	1.7 ± 0.2	0.42 ± 0.22	0.71 ± 0.11	13.8 ± 5	0.51 ± 0.07	8.6 ± 0.2	Internalization (LNCaP cells [3]): 126 ± 13 % of reference; Lipophilicity log PO/PBS [5]: - 3.2 ± 0.05
CC(C)(C)[Si](F)(c1ccc(C(=O)NC[C@@H](NC(=O)CN2CCN(CC(=O)O)CCN(CC(=O)O)CCN(CC(=O)O)CC2)C(=O)N[C@H](CCCCNC(=O)CCC(=O)NCCC[C@@H](NC(=O)CC[C@H](NC(=O)N[C@@H](CCC(=O)O)C(=O)O)C(=O)O)C(=O)O)C(=O)O)cc1)C(C)(C)C [68/natGa-19F-rhPSMA-10, metal not drawn]	2.2 ± 0.3	1.5 ± 0.3	0.35 ± 0.13	0.75 ± 0.13	0.47 ± 0.21	77.5 ± 13.6	0.7 ± 0.2	1.3 ± 0.2	0.33 ± 0.1	0.51 ± 0.03	9.4 ± 1.6	0.42 ± 0.12	11.7 ± 1.9	IC50 (PSMA): 3.8 ± 0.3 nM
